Columns and labels:
[1] = Pectin lyase activity (absorbance at 235 nm, acetate buffer); type: biochemical
Protocol: An example of a method for measuring pectin lyase activity is to measure over time the absorbance of the maximum absorption wavelength at 235 nm by unsaturated polygalacturonid formed as a result the substrate being degraded by enzymatic action. In the alternative, other publicly-known methods may be used.
First, 50 μL of a solution of 2 wt. % of pectin (SIGMA/P9436, derived from citrus fruit) adjusted to pH 4.5 using NaOH or HCl, and 50 μL of enzyme solution were prepared. The 50 μL of wt. 2% pectin solution was mixed with 400 μL of 50 mM acetate buffer (pH 4.5) to prepare in advance a total of 450 μL, to which 50 μL of enzyme solution is to be added for a total of 500 μL as an enzymatic reaction solution to be used when measuring activity. In order to ensure uniform diffusion of the substrate in the reaction solution and to achieve stabilization, NaCl is added to obtain a final concentration of 0.1 M.
The enzyme solution and the enzymatic reaction solution without the enzyme solution are each incubated for 10 minutes at 25° C., after which 50 μL of the enzyme solution is mixed with 450 μL of the enzymatic reaction solution without the enzyme solution. An enzymatic reaction is then initiated, and measurements of absorbance at 235 nm are taken continuously for 10 minutes at 25° C. using a spectrometer. The amount of resulting unsaturated polygalacturonid is computed using a molecular absorbance coefficient of 5200 (M^−1cm^−1) (Paloma Sanchez-Torres, Jeap Visser, and Jacques A. E. Benen, Biochem. J., 370, 331-337, Feb. 15, 2003), and 1 unit (1 U) of pectin lyase activity was set at the amount of unsaturated polygalacturonid formed per 1 μmmol of unsaturated digalacturonid per minute.
In order to determine the optimal pH for pectin lyase activity of pectin lyase having maceration activity produced from the strain Aspergillus niger NBRC31125, the enzyme activity at various pH levels was measured using the above-described enzymatic reaction solution with modified pH (the enzymatic reaction solution described in [C] 2. (1) above).
(§1) It should be noted that a 20 mM phosphate buffer was used for the pH 6.0-7.5 enzymatic reaction solution, and a 50 mM Tris-HCl buffer was used for the pH 7.5-9.5 enzymatic reaction solution. In cases where a McIlvaine buffer was used in a pH range of 3-6, the pectin lyase activity was measured in the same manner. Moreover, in order to determine the pH stability, the pH of enzyme solutions containing purified enzymes was adjusted to 3.0, 4.0, 5.0, 6.0, 7.0, 8.0, 9.0 and 10.0, using either HCl or NaOH. After allowing these enzyme solutions to stand for 24 hours at 4° C., the pectin lyase activity was measured at 25° C. using a 50 mM acetate buffer (pH 4.5).

sweet potato discs [2] = assay: Maceration activity, sweet potato disc decay at 30° C.; type: biochemical
From the text: Maceration activity can be measured, for example, by immersing a sweet potato disc in the enzyme solution, and measuring the time elapsed until the sweet potato disc uniformly decays in the enzyme solution as a result of insoluble pectin being degraded by enzymatic action. In the alternative, other publicly-known methods may be used.
A column 6 mm in diameter is removed from the center of a sweet potato using a cork borer. After using a knife to cut sweet potato discs about 0.3 mm thick, the discs are immersed for 60 seconds in 70% ethanol and then rinsed with distilled water. Into a test tube are placed 300 μL of enzyme solution with pH adjusted to 3.5 using HCl, and 200 μL of 50 mM acetate buffer (pH 3.5), and after these are mixed, a constant temperature is set at 30° C., and 3 of the above sweet potato discs are placed therein, and a reaction is initiated. Every 15 minutes after the reaction starts, agitation is carried out for 10 seconds using a test tube mixer, and the degree of decay is visually observed. The strength of the maceration activity is expressed by the reciprocal of the time needed for 2 of the 3 sweet potato discs to almost uniformly decay (Reference literature: Toshihiko Suganuma, Tetsuro Fukumoto, Youko Ikemizu, Katsuyuki Nakama, Shigeo Fujimoto, and Tomonori Nagahama, Bulletin of the Faculty of Agriculture, Kagoshima University, 37, 89-98, Mar. 16, 1987).
A column 6 mm in diameter was removed from the center of a sweet potato (about 500 g) using a cork borer. After using a knife to cut sweet potato discs about 0.3 mm thick, the discs were immersed for 60 seconds in 70% ethanol and then rinsed with distilled water. Into a test tube were placed 300 μL of purified enzyme solution (1.30 μg/mL) and 200 μL of a buffer, and after these were mixed, a constant temperature was set at 30° C., and 3 of the above sweet potato discs were placed therein, and a reaction was initiated.
The buffers were 50 mM acetate buffers with pH 3.0, 3.5, 4.0, 4.5, 5.0, and 6.0, a 50 mM HEPES buffer with pH 7.0, and 50 mM Tris-HCl buffers with pH 8.0 and 9.0. After starting the reaction, stirring was carried out for 10 seconds with a test tube mixer every 15 minutes, and the degree of decay was visually observed. The strength of the maceration activity was expressed by the reciprocal of the time needed for 2 of the 3 sweet potato discs to almost uniformly decay.
In order to evaluate the strength of the maceration activity of the pectin lyase of the present invention, in a Comparative Example, two commercially available enzyme preparations, Macerozyme R10 and Pectolyase Y-23 were dissolved in purified water so that the amount of protein in the respective enzyme solutions was 1.30 μg/ml, and these were subjected to the test described above.

[3] = pH stability of pectin lyase; type: physicochemical; settings: 24 hours at 4° C., activity then measured at pH 4.5, 25° C.
Protocol: as §1
The pH stability was evaluated using the formula (activity after standing/activity before standing)×100. As a result, the specific activity and the pH stability of pectin lyase at various pH levels are represented in the graph in FIG. 1, where 1.0 is pectin lyase at pH 4.5. The optimal pH for pectin lyase activity according to the present invention was 4.5 in the acetate buffer, and 4.8 in the McIlvaine buffer, and was thus found to be stable in a pH range of 3-6.

sweet potato discs [4] = assay: Maceration activity, sweet potato disc decay at 45° C. in McIlvaine buffer; type: biochemical; settings: for specific maceration activity relative to N400 strain PLA: per 1 mg of protein, at optimal pH
Protocol: The maceration activity was measured as described below. First, sweet potato discs were prepared in the same manner as described above. Then, 50 μL of enzyme solution and 450 μL of buffer were placed in a test tube and mixed, forming a test solution held at a constant temperature of 45° C., then 1 of the above sweet potato discs were placed therein, and a reaction was initiated. A McIlvaine buffer was used as the buffer, and the ionic strength of the test solution (total of 500 μL) was adjusted in advance to I=0.3 or 0.5, using KCl. After the reaction started, stirring was carried out in the manner described above, and the degree of decay was visually observed. Three specimens each were prepared under the various conditions, and reactions of specimens under identical conditions were initiated simultaneously. The strength of the maceration activity under those conditions was expressed by the reciprocal of the time needed for any 2 of the sweet potato discs of the 3 specimens under identical conditions (total of 3) to almost uniformly decay.

[5] = Pectin lyase activity with HM pectin in McIlvaine buffer; type: biochemical
Protocol: In order to determine the kM value of the isolated and purified pectin lyase having maceration activity (SIGMA/P9561, derived from citrus fruit, degree of esterification <90%), a McIlvaine buffer (0.1 M citric acid, 0.2 M phosphoric acid) adjusted to pH 4.8 was used in measuring the enzyme activity when the final concentration of pectin was changed.
In addition, under conditions of 30° C., and within a pH range of 3.0-7.0, a McIlvaine buffer was used to measure the pectin lyase activity when the ionic strength of the various buffers was adjusted to 0.5 using KCl.
The pectin lyase activity was measured as described below. First, a McIlvaine buffer was used in the enzymatic reaction solution, and an HM pectin substrate (SIGMA/P9561, derived from citrus fruit, degree of esterification <90%) was used to obtain a final concentration of 3 mg/mL. The ionic strength of the enzymatic reaction solution was adjusted in advance to I=0.3 or 0.5, using KCl, and the enzyme solution was 50 μL, and the total amount of the enzymatic reaction solution was 500 μL. Measurements were carried out in the same manner as in [C] 2. (2) (Paloma Sanchez-Tones, Jaap Visser, and Jacques A. E. Benen, Biochem. J., 370, 331-337, Feb. 15, 2003), except that the temperature was 30° C.

[6] = Test to determine the maximum temperature of pectin lyase / heat deactivation; type: physicochemical; settings: 15 minutes at 121° C.
[7] = Effects of metallic ions on pectin lyase activity; type: biochemical; settings: Ca^2+ 1 mM, acetate buffer pH 4.5, 25° C.
Protocol: Tests were conducted on the effects of metallic ions (Ca^2+, Ba^2+, Co^2+, Cu^2+, Mg^2+, Mn^2+, Zn^2+, and Fe^2+) of pectin lyase having maceration activity produced from the strain Aspergillus niger NBRC31125 on pectin lyase activity.
The test method involved the use of chlorides of various metals, and adjusting their final concentration in the enzymatic reaction solution to 1 mM, and calculating the percentage of change in activity depending on the presence or absence of metallic ions. The enzymatic reaction solution used a 50 mM acetate buffer and a pH of 4.5, and measurements were taken at 10-minute intervals at 25° C.

[8] = McIlvaine buffer, I=0.3, 45° C.
[9] = McIlvaine buffer pH 4.8, Lineweaver-Burk plot

B1: pectin lyase of the present invention: Pectin lyase with maceration activity purified from Aspergillus niger NBRC31125; SEQ ID NO: 2; PLA mutant differing in 9 amino acids from N400 PLA (protein, listed as Aspergillus sp.)
chain: VGVSGSAEGFAEGVTGGGSATPVYPDTIDELVSYLGDDEARVIVLTKTFDFTDSEGTTTGTGCAPWGTASACQVAIDQDDWCENYEPDAPSVSVEYYNAGTLGITVTSNKSLIGEGSSGAIKGKGLRIVSGAENIIIQNIAVTDINAKYVWGGDAITLDDCDLVWIDHVTTARIGRQHYVLGTSADNRVSLTNNYIDGVSDYSATCDGYHYWAIYLDGDADLVTMKGNYIYHTSGRSPKVQDNTLLHAVNNYWYDISGHAFEIGEGGYVLAEGNVFQNVDTVLETYEGEAFTVPSTTAGEVCSTYLGRDCVINGFGSSGTFSEDSTSFLSDFEGKNIASASAYTSVASSVVANAGQGNL
[1]; 50 mM acetate buffer pH 4.5, 25° C.
  pectin lyase activity: 54.7 U/mg
[1]; McIlvaine buffer
  optimal pH for pectin lyase activity: 4.8
[1]; acetate buffer
  optimal pH for pectin lyase activity: 4.5
[1]; purified vs crude enzyme solution
  pectin lyase activity relative to crude enzyme solution: 61 times
Sweet potato discs [2]; 30° C., enzyme solution 1.30 μg/mL protein, buffers pH 3.0-9.0
  optimal pH for maceration activity: ~3.5
Sweet potato discs [2]; at optimal pH, 30° C.
  maceration activity per 390 ng of protein: 0.15 h⁻¹
Sweet potato discs [2]; pH 3.0
  specific maceration activity at pH 3.0 relative to Macerozyme R10: 27.7 times
  specific maceration activity at pH 3.0 relative to Pectolyase Y-23: 15.6 times
Sweet potato discs [2]; pH 3.0, 0.5 mL enzyme solution (500 ng purified pectin lyase; 2% Macerozyme A; 0.16% Pectolyase Y-23)
  maceration activity of enzyme solution used for pectin lysate: 0.18 h⁻¹
Sweet potato discs [2]; pH 5.0 or lower
  maceration activity: maceration activity was observed
Sweet potato discs [2]; pH 6.0, 7.0, 8.0, and 9.0
  decay of sweet potato discs: no decay occurred at all
[3]
  pH range in which stable: 3-6
Sweet potato discs [4]; [8]
  optimal pH of maceration activity: 4.0
  specific maceration activity per 1 mg: 7400 h⁻¹ mg⁻¹
Sweet potato discs [4]; McIlvaine buffer, I=0.5, 45° C.
  optimal pH of maceration activity: 5.0
Sweet potato discs [4]; maceration activity/pectin lyase activity of 1 mg of enzyme
  ratio of the maceration activity to the pectin lyase activity: 72.5
Sweet potato discs [4]
  specific maceration activity relative to N400 strain PLA: about 3 times
Sweet potato discs [4]; listed as protein of the present invention
  specific maceration activity relative to N400 strain PLA: 3 times
Sweet potato discs [4]; listed as this pectin lyase
  specific maceration activity relative to N400 strain PLA: about 3 times
[5]; 30° C., McIlvaine buffer pH 3.0-7.0, ionic strength 0.5 with KCl (FIG. 2)
  optimal pH for pectin lyase activity: 4.8
[5]; 30° C., McIlvaine buffer, I=0.5, at optimal pH
  specific pectin lyase activity: 102 U/mg
[5]; [9]
  Km value: 5.4 mg/mL
  Vmax value: 140 U/mg
[5]; McIlvaine buffer, I=0.3, 30° C.
  optimal pH of pectin lyase activity: 4.0
[5]; McIlvaine buffer, I=0.5, 30° C.
  optimal pH of pectin lyase activity: 5.0
[6]
  deactivation by boiling treatment: completely deactivated
[7]
  Activity (%) vs. non-addition of ions: 120%

Reference: patent US8691536B2, “Pectin lyase, pectin lyase polynucleotide, enzyme preparation, and method for producing single cells of plant tissue” (Bio-I Co., Ltd., priority 2009, dated 2014)
